Measurements as given in patent publication US11643670B2, “Methods of enhancing chromosomal homologous recombination” (Massachusetts Institute of Technology, priority 2018, dated 2023).

Assays:
Chd2 locus = experiment: Chd2^R1684H knock-in by PNI/CPI with RAD51, genotyping of F0 pups; assay type: in vivo, mouse; settings: 18 F0 pups, PNI and CPI, RAD51 protein 10 ng/μL
Description: (§1) tracrRNA, crRNAs, and ssODNs were synthesized by Integrated DNA Technologies (TABLE 1). All injection mixtures were prepared in a final volume of 50 μL according to the following methodology: Using RNase-free water, reagents, and consumables, crRNA (final concentration 0.61 μM), tracrRNA (final concentration 0.61 μM), and ultrapure Tris-HCl, pH 7.39 (final concentration 10 mM, ThermoFisher) were mixed and incubated at 95° C. for 5 minutes. The mixtures were cooled to room temperature for 10 minutes on the benchtop, and then, EnGen Cas9-NLS S. pyogenes (New England Biolabs) was added to a final concentration of 30 ng/μL. The mixtures were incubated at 37° C. for 15 minutes before adding any remaining components: ssODN (final concentration 3 ng/μL or 30 ng/μL), RAD51 (Creative Biomart, final concentration 10 ng/μL). Injection mixtures were stored on ice and briefly heated to 37° C. prior to injection. For experiments utilizing RS-1, embryos were cultured in KSOM-AA (EMD Millipore MR-121-D) with […] RS-1 (Sigma) dissolved in DMSO or DMSO (Sigma, 1:1000) for 24 hours, washed, and cultured in EmbryoMax FHM HEPES Buffered Medium (Sigma) until collection for genotyping.
Female mice (4-5 weeks old, C57BL/6N) were superovulated by IP injection of PMS (5 IU/mouse, three days prior to microinjection) and hCG (5 IU/mouse, 47 hours after PMS injection) and then paired with males. […]

Tyr^C89S locus = experiment: Tyr^C89S knock-in by three-component CRISPR, genotyping/albino phenotype of F0 pups; assay type: in vivo, mouse
Description: as §1
For all experiments except those described in FIG. 6, the male pronucleus was injected. Injections performed for the CPI portion of FIG. 6 were targeted to the cytoplasm. […]

B1: RAD51: recombinant human strand exchange protein RAD51 (Creative Biomart RAD51-134H), transcript variant 4 (protein, UniProt Q06609 2-339, looked up)
DNA repair protein RAD51 …: AMQMQLEANADTSVEEESFGPQPISRLEQCGINANDVKKLEEAGFHTVEAVAYAPKKELINIKGISEAKADKILAEAAKLVPMGFTTATEFHQRRSEIIQITTGSKELDKLLQGGIETGSITEMFGEFRTGKTQICHTLAVTCQLPIDRGGGEGKAMYIDTEGTFRPERLLAVAERYGLSGSDVLDNVAYARAFNTDHQTQLLYQASAMMVESRYALLIVDSATALYRTDYSGRGELSARQMHLARFLRMLLRLADEFGVAVVITNQVVAQVDGAAMFAADPKKPIGGNIIAHASTTRLYLRKGRGETRICKIYDSPCLPEAEAMFAINADGVGDAKD
With B1 the “homozygous KI efficiency” value (Chd2 locus) was 55.5%, the “overall KI efficiency (pups with ≥1 KI allele/total pups)” value (Chd2 locus) was 61.1% and the “pups with albino phenotype from homozygous KI of the Tyr^C89S allele” value (Tyr^C89S locus; F0 pups with RAD51, 12% without) was 44.4%. The “homozygous KI rate relative to injection without RAD51” value (Tyr^C89S locus; Tyr locus) was “more than doubled”.
